Experimental data reported in paper PMC12524584, “Structures, Interactions, and Antimicrobial Activity of the Shortest Thanatin Peptide from Anasa tristis” (International Journal of Molecular Sciences, 2025).
Bridges are numbered along the chain shown (N, C = ends). Where no end group is shown, it is not given here.

Target: T1, LptAm of Klebsiella pneumoniae (truncated but functional variant of the LPS transport periplasmic protein … (Klebsiella pneumoniae, UniProt A0A377YZM8 28-159, 15N-labeled))
T1 construct: LptA, periplasmic LPS transport protein of Klebsiella pneumoniae, amino acids 28-159 (LptAm); synthetic gene in pET24a(+); also called 15N-LptAm; source: E. coli BL21, purified (Ni-NTA, size-exclusion chromatography), 15N-labeled in M9 minimal medium
T1 sequence: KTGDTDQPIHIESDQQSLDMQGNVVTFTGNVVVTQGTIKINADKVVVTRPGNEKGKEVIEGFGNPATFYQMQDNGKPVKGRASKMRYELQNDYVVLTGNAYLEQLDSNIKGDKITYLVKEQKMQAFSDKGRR
Experiment: NMR titration; 15N-1H HSQC of 15N-LptAm free and with Ana-thanatin at protein:peptide molar ratios 1:1 and 1:2; 298 K
Conditions: both partners purified

B1: Ana-thanatin (16-residue thanatin from Anasa tristis) (peptide)
peptide: VPIYYCNRKTGKCRRL
modifications: disulfide 6-13 (inferred)
notes: thanatin of the squash bug Anasa tristis, 16 residues, V1-L16; Single disulfide-bonded beta-hairpin peptide; the disulfide would join C6 and C13, the only two Cys; also called Anasa tristis thanatin; Ana-thanatin peptide; source: synthetic peptide (chemically synthesized by GenScript)
stoichiometry N: 1
